Among the data in patent US20250011438A1 (INSTITUTE FOR BASIC SCIENCE, published 2025) are Kd, koff and kon values, retold here.

Test [1] has as its target T1, recombinant human Tie2 Ig3-FNIII(1-3) domains (human, UniProt Q02763 349-738).
T1 construct: also called hTie2-Ig3-FNIII(1-3)
The experiment in a line: BLI (Octet), antibody immobilised on AR2G sensor, recombinant hTie2 as analyte, 1:1 global fit. The protocol:
The affinity of humanized anti-Tie2 antibody against hTie2 was measured using Octet® system (ForteBio) where Black 96-well plates (96 well F-type black plates, Greiner) were used. […] After the hydration, humanized anti-Tie2 antibody was diluted in 10 mM sodium acetate, pH 6.0 buffer at a concentration of 10 μg/ml, fixed on AR2G biosensor, and blocked with 1M ethanolamine. The recombinant hTie2 was diluted to 50, 25, 12.5, 6.25, 3.125, and 0 nM with 1× kinetic buffer, and subjected to association for 300 sec and dissociation for 900 sec.
A general note: BLI is a label-free optical method that tracks binding on a fibre tip over time.

In test [2] the target is T2, human Tie2 (hTie2), as immobilised in the Octet assay of Example 1.4 (human, UniProt Q02763 349-738, limits assumed).
T2 construct: The protein used was probably a soluble recombinant form, possibly hTie2-Ig3-FNIII(1-3)
The experiment in a line: BLI (Octet), hTie2 immobilised on AR2G sensor, antibody as analyte, 1:1 global fit. The protocol:
The affinity of mouse monoclonal antibody against hTie2 was measured using Octet® system (ForteBio) where Black 96-well plates (96 well F-type black plates, Greiner) were used. […] After the hydration, hTie2 was diluted in 10 mM sodium acetate, pH 6.0 buffer at a concentration of 10 μg/ml, fixed on AR2G biosensor, and blocked with 1M ethanolamine. The mouse monoclonal anti-Tie2 antibodies were diluted to 50, 25, 12.5, 6.25, 3.125, and 0 nM with 1× kinetic buffer, and subjected to association for 300 seconds and dissociation for 900 seconds.

In test [3] the target is T1, recombinant human Tie2 Ig3-FNIII(1-3) …. The experiment in a line: stated in the HDX-MS sample preparation; how it was measured is not given; HDX-MS sample preparation; hTie2-Ig3-FNIII(1-3) fragment in deuterium labeling buffer; assay not given.

One may read the Kd as a measure of binding affinity in units of concentration. A word on the koff: it is the first-order rate constant of dissociation. Broadly, the kon is a measure of how fast the partners come together.

T2 sequence (Q02763 349-738 limits assumed): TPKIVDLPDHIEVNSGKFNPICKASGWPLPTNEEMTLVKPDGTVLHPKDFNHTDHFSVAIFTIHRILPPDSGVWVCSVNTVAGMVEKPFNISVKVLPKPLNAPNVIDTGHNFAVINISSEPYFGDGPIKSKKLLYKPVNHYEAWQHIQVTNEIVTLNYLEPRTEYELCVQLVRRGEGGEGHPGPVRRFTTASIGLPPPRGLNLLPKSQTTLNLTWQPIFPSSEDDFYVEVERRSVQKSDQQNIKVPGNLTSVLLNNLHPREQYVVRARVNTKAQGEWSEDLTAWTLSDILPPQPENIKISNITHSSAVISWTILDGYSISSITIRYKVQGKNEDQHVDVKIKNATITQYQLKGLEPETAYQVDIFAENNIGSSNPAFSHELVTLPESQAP
T1 sequence (Q02763 349-738 limits assumed): as above

B1: humanized anti-Tie2 antibody 3H7H11G4 (antibody, V domains shown)
VH: QVQLVQSGAEVKKPGASVKVSCKASGYTFTSYWMNWVRQAPGQGLEWMGMIHPSDSETRLNQKFMDRVTMTRDTSTSTVYMELSSLRSEDTAVYYCARGLYGNSWGQGTLVTVSS
VL: DIQMTQSPSSLSASVGDRVTITCRASQDIGISLNWYQQKPGKAPKRLIYATSSLDSGVPSRFSGSGSGTEFTLTISSLQPEDFATYYCLQYASSPYTFGQGTKVEIK
B1: in test [1], the Kd was 7.47 nM, the koff came out at 0.000467 s⁻¹ and the kon worked out at 62600 M⁻¹ s⁻¹.

B2: humanized anti-Tie2 antibody 3H7H22G4 (antibody, V domains shown)
VH: QVQLVQSGAEVKKPGASVKVSCKASGYTFTSYWMNWVRQRPGQGLEWIGMIHPSDSETRLNQKFMDRVTMTRDTSTSTVYMELSSLRSEDTAVYYCARGLYGNSWGQGTLVTVSS
VL: DIQMTQSPSSLSASVGDRVTITCRASQDIGISLNWLQQEPGKAPKRLIYATSSLDSGVPKRFSGSGSGTEFTLTISSLQPEDFATYYCLQYASSPYTFGQGTKVEIK
On to B2, for which, in test [1], the Kd stood at 39.7 nM, the koff came out at 0.000656 s⁻¹ and the kon is 16500 M⁻¹ s⁻¹.

B3: humanized anti-Tie2 antibody 3H7H21G4 (antibody, V domains shown)
VH: QVQLVQSGAEVKKPGASVKVSCKASGYTFTSYWMNWVRQRPGQGLEWIGMIHPSDSETRLNQKFMDRVTMTRDTSTSTVYMELSSLRSEDTAVYYCARGLYGNSWGQGTLVTVSS
VL: DIQMTQSPSSLSASVGDRVTITCRASQDIGISLNWYQQKPGKAPKRLIYATSSLDSGVPSRFSGSGSGTEFTLTISSLQPEDFATYYCLQYASSPYTFGQGTKVEIK
Take B3: in test [1], the Kd was 6.59 nM, the koff amounted to 0.000517 s⁻¹ and the kon came out at 78500 M⁻¹ s⁻¹.

B4: humanized anti-Tie2 antibody 3H7H12G4 (antibody, V domains shown)
VH: QVQLVQSGAEVKKPGASVKVSCKASGYTFTSYWMNWVRQAPGQGLEWMGMIHPSDSETRLNQKFMDRVTMTRDTSTSTVYMELSSLRSEDTAVYYCARGLYGNSWGQGTLVTVSS
VL: DIQMTQSPSSLSASVGDRVTITCRASQDIGISLNWLQQEPGKAPKRLIYATSSLDSGVPKRFSGSGSGTEFTLTISSLQPEDFATYYCLQYASSPYTFGQGTKVEIK
In the case of B4, in test [1], the Kd came out at 96.5 nM, the koff turned out to be 0.000999 s⁻¹ and the on-rate (kon) came to 10400 M⁻¹ s⁻¹.

B5: mouse anti-Tie2 antibody 11C4 (antibody, V domains shown)
VH: QVQLQQPGADLVRPGASVTLSCKASGYSFTSYWMNWVKQRPGQGLEWIGMIHPSDSETRLNQKFKDKATLTVDKSSSTAYMQLRSPTSEDSAVYYCAGLTIYFDYWGQGTTLTVSS
VL: DIQMTQSPSSLSASLGERVSLTCRASQDIGISLNWLQQEPDGTIKRLIYATSSLDSGVPKRFSGSRSGSDYSLTISSLESEDFVDYYCLQYASSPYTFGGGTKLEIK
In test [2], B5 gave a Kd of 0.215 nM, a koff of 0.000327 s⁻¹ and a kon of 1.52e+06 M⁻¹ s⁻¹.

B6: mouse anti-Tie2 antibody 4A4 (antibody, V domains shown)
VH: QVQLQQPGAELVRPGASVKLSCKASGYSFTSYWMNWVKQRPGQGLEWIGMIHPSDSETRLNQKFKDKATLTVDKSSSTAYMQLSSPTSEDSAVYYCARGYYFDYWGQGTTLTVSS
VL: DIQMTQSPSSLSASLGERVSLTCRASQDIGISLNWLQQEPDGTIKRLIYATSSLDSGVPKRFTGSRSGSDYSLTISSLESEDFVDYYCLQYVSSPWTFGGGTKLEIK
In test [2], B6 returned a Kd of 0.105 nM, a koff of 5.53e-05 s⁻¹ and a kon of 525000 M⁻¹ s⁻¹.

B7: mouse anti-Tie2 antibody 3H7 (antibody, V domains shown)
VH: QVQLQQPGAELVRPGASVKLSCKASGYSFTSYWMNWVKQRPGQGLEWIGMIHPSDSETRLNQKFMDKATLTVDKSSSTAYMQLSSPTSEDSAVYYCARGLYGNSWGQGTLVTVSA
VL: DIQMTQSPSSLSASLGERVSLTCRASQDIGISLNWLQQEPDGTIKRLIYATSSLDSGVPKRFSGSRSGSDYSLTISSLESEDFVDYYCLQYASSPYTFGGGTKLEIK
Turning to B7, the Kd in test [1] was 0.0269 nM; in test [2], 0.0556 nM; in test [3], 25 nM. For the same molecule, the koff in test [1] was 1.05e-05 s⁻¹; in test [2], 2.13e-05 s⁻¹. The on-rate (kon) in test [1] came to 558000 M⁻¹ s⁻¹; in test [2], 384000 M⁻¹ s⁻¹.

B8: mouse anti-Tie2 antibody 3E12 (antibody, V domains shown)
VH: QVQLQQPGADLVRPGASVKLSCKASGYSFTSYWMNWVKQRPGQGLEWIGMIHPSDSETRLNQKFKDKATLTVDKSSSTAYMQLSSPTSEDSAVYYCAKGYYFGYWGQGTTLTVSS
VL: DIQMTQSPSSLSASLGERVSLTCRASQDIGISLNWLQQEPDGTIKRLIYATSNLDSGVPKRFSGSRSGSDYSLTISSLESEDFVDYYCLQYASSPPTFGGGTKLEIK
In test [2], B8 gave a Kd of 0.251 nM, a koff of 9.12e-05 s⁻¹ and a kon of 363000 M⁻¹ s⁻¹.

B9: mouse anti-Tie2 antibody 3B2 (antibody, V domains shown)
VH: QVQLQQPGAELVRPGASVKLSCKASGYSFTSYWMNWVKQRPGQGLEWIGMIHPSDSETRLNQKFKDKATLTVDKSSSTAYLQLSSPTSEDSAVYYCARGNYFDCWGQGTTLTVSS
VL: DIQMTQSPSSLSASLGERVSLTCRASQDIGISLNWLQQEPDGTIKRLIYATSILDSGVPKRFSGSRSGSDYSLTISSLESEDFVDYYCLQYASSPWTFGGGTKLEIK
In test [2], B9 returned a Kd below 0.001 nM, a koff below 1e-07 s⁻¹ and a kon of 444000 M⁻¹ s⁻¹.
